Measurements published in patent US20150197562A1 (FRAUNHOFER GESELLSCHAFT ZUR FOERDERUNG DER ANGEWANDTEN …, published 2015).
Like-named read-outs stand apart in the source and are kept apart here.

T1: dsRed
T1 construct: also called dsRed (horizontal lines)
T1 chain: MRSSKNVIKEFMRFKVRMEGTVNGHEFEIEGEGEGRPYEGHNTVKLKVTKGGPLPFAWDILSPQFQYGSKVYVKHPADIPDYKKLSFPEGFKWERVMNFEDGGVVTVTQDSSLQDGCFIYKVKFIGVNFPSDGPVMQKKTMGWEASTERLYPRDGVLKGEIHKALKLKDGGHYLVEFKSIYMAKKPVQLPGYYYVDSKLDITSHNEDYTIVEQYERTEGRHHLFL

B1: recombinant huMAb-anti-MSP10.2 (antibody, V domains shown)
VH: EVQLVESGGDLVKPGGSLRLSCVVSGFRISTSAMSWVRQVPGKGLEWVSDISESGGSKDYADSVRGRFTISRDTSKNTLYLQMNSLGADDTALYYCAKSVGYFDTSGYYRWDYFDSWGQGTLVTVSS
VL: EIVLTQSPDTLSLSPGETATLSCRASQTVRRNSLAWYQQKPGQAPRLLIYGASDRATGIPDRFSGSGFGTDFTLTVSGLEPEDFAVYYCQQYGTSPRTFGQGTKLEIK
notes: Same heavy chain as huMAb-anti-MSP10.1 with a different kappa light chain; Cloned and expressed like huMAb-anti-MSP10.1 (IgG1m17,1, kappa; N. benthamiana)
B2: recombinant huMAb-anti-MSP10.1 (antibody, V domains shown)
VH: B1 VH
VL: EIVLTQSPDILSLSPGERATLSCRASQALTAKYLAWYQQKPGQVPRLLIYGSSTRATGIPDRFRGSGSGTDFTLTISRLEPADSAVYYCQQYEDSPWTFGQGTKLEIK
notes: also called recombinant human anti MSP-10 antibody huMAb-anti-MSP10.1

Tests used:
dsRed [1] = biological target: T1, dsRed; test: ELISA, coated antigen, goat anti-human IgG-AP, pNPP, absorbance at 405 nm
dsRed [2] = biological target: T1, dsRed; test: as above

Row | Binder | binding result (dsRed [1]) | binding result (dsRed [2])
1 | B1 | no binding (tested: 100 µg/ml) | 
2 | B2 |  | no binding (tested: 100 µg/ml)
